Test results: patent publication CN117545772A (FUSION THERAPEUTICS INC, dated 2024)
Where “and” joins values, the source holds several entries; their conditions need not be identical. Equal entries are not always repeated.

B1: 1D2-5C8var1(Y105F)-Fc (bispecific antibody, V domains shown)
V domain 1: EVQLLESGGGSVQPGGSLRLSCAASGRPFSNYAMSWFRQAPGKEREFVSAISWSGGSTSYADSVKGRFTISRDNSKNTLYLQMNSLRAEDTAVYYCAAQFSGADFGFGRLGIRGYEYDYWGQGTQVTVSS
V domain 2: EVQLVESGGGLVQAGGSLRLSCAASGRTASSYVMGWFRQAPGKEREFVAVINWNGDSTYYTDSVKGRFAISRDNAKNTVYLQMNSLKPEDTAVYYCAADTRREWYRDGYWGPPARYEYDYRGQGTQVTVSS
B2: 抗CD123 VHH 1A3 (VHH)
VHH: EVQLVESGGGLVQAGGSLRLSCAASGRAINTYAMAWFRQAPGKERDFVATISYSGGTTDYAGSVKGRFTISRDNAENTVYLQMNSLKPEDTAVYYCAARDRYNPLARNYNYWGQGTQVTVSS
notes: also called 1A3抗体

Legend:
人CD123 (在细胞上表达) [1] = target: T1, 人CD123 (在细胞上表达) (human, UniProt P26951 19-378); experiment: cell-based or functional assay
[2] = target: T2, 重组人CD123抗原(细胞外结构域，Sino Biological) (human, UniProt P26951 19-305); experiment: phage ELISA on captured recombinant antigen
T2 construct: Bought; also called 重组的纯化CD123抗原
T2 sequence: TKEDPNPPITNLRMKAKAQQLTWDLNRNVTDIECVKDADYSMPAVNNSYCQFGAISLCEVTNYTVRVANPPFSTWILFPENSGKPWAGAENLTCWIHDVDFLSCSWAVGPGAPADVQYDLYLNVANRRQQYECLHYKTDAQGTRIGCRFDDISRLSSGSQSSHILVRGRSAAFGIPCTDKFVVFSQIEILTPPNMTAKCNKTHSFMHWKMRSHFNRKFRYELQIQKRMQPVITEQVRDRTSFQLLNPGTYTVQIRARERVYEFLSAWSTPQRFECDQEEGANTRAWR

人CD123 (在细胞上表达) [3] = target: T1, 人CD123 (在细胞上表达); experiment: flow cytometry on the C1R-CD1d cells expressing CD123 used for immunisation

Binder | EC50 of T细胞介导的THP-1靶细胞的细胞毒性 (24小时) (人CD123 (在细胞上表达) [1]) | THP-1裂解的EC50 (2号供体) (人CD123 (在细胞上表达) [1]) [pM] | THP-1靶细胞裂解的效力(EC50), THP-1:pDC:Vγ9Vδ2T 1:1:2共培养 (人CD123 (在细胞上表达) [1]) [pM] | pDC裂解的EC50 (2号供体) (人CD123 (在细胞上表达) [1]) [pM] | pDC裂解的EC50相对于THP-1裂解的EC50 (人CD123 (在细胞上表达) [1]) [fold] | binding result [2] | binding result (人CD123 (在细胞上表达) [3])
B1 | 1 pM and 3 pM | 1 | ~1 | 11 | ~10 | – | –
B2 | – | – | – | – | – | binds | binds
